According to article PMC6588637, “Immunization with merozoite surface protein 2 fused to a Plasmodium-specific carrier protein elicits strain-specific and strain-transcending, opsonizing antibody” (Scientific Reports, 2019):

Molecular target: the molecule itself
Experiment: Thioflavin T fluorescence assay of amyloid-like fibril formation; 10 μM recombinant protein in PBS without sarkosyl, 30 μM ThT, 37 °C for up to 98 hours; in parallel with 40 μM EGCG, an inhibitor of fibril formation

B1: unfused recombinant Plasmodium falciparum merozoite surface protein 2 (3D7 allele) (domain or fragment)
chain: KNESKYSNTFINNAYNMSIRRSMAESKPSTGAGGSAGGSAGGSAGGSAGGSAGGSAGSGDGNGADAEGSSSTPATTTTTKTTTTTTTTNDAEASTSTSSENPNHKNAETNPKGKGEVQEPNQANKETQNNSNVQQDSQTKSNVPPTQDADTKSPTAQPEQAENSAPTAEQTESPELQSAPENKGTGQHGHMHGSRNNHPQNTSDSQKECTDGNKENCGAATSLLNNSS
notes: Predicted molecular weight 24,721 daltons; also called rPfMSP2; rPfMSP2 (3D7); not shown: His6, N-terminal, kept
Does B1 bind?
Result: binds
